The target of test [1] is C5a receptor (C5aR) (human) (UniProt P21730). Nature of the test: cell-based or functional assay.
Test [2] has as its target complement component C3 (native C3) (human, UniProt P01024 23-1663). The test is described as follows: cell-based or functional assay.

Bridges are numbered along the chain shown (N, C = ends).

Sequence of C5a receptor (C5aR) (human) (P21730 whole entry): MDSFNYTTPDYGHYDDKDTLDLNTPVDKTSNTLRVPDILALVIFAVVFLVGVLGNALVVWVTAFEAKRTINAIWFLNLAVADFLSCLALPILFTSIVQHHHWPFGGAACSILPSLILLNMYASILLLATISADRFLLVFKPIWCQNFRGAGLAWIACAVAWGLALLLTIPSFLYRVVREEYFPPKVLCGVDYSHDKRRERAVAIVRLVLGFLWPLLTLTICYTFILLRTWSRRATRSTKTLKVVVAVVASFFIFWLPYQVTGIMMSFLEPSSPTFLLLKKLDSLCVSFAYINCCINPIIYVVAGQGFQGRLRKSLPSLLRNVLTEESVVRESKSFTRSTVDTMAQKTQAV
Sequence of complement component C3 (native C3) (P01024 23-1663 limits assumed): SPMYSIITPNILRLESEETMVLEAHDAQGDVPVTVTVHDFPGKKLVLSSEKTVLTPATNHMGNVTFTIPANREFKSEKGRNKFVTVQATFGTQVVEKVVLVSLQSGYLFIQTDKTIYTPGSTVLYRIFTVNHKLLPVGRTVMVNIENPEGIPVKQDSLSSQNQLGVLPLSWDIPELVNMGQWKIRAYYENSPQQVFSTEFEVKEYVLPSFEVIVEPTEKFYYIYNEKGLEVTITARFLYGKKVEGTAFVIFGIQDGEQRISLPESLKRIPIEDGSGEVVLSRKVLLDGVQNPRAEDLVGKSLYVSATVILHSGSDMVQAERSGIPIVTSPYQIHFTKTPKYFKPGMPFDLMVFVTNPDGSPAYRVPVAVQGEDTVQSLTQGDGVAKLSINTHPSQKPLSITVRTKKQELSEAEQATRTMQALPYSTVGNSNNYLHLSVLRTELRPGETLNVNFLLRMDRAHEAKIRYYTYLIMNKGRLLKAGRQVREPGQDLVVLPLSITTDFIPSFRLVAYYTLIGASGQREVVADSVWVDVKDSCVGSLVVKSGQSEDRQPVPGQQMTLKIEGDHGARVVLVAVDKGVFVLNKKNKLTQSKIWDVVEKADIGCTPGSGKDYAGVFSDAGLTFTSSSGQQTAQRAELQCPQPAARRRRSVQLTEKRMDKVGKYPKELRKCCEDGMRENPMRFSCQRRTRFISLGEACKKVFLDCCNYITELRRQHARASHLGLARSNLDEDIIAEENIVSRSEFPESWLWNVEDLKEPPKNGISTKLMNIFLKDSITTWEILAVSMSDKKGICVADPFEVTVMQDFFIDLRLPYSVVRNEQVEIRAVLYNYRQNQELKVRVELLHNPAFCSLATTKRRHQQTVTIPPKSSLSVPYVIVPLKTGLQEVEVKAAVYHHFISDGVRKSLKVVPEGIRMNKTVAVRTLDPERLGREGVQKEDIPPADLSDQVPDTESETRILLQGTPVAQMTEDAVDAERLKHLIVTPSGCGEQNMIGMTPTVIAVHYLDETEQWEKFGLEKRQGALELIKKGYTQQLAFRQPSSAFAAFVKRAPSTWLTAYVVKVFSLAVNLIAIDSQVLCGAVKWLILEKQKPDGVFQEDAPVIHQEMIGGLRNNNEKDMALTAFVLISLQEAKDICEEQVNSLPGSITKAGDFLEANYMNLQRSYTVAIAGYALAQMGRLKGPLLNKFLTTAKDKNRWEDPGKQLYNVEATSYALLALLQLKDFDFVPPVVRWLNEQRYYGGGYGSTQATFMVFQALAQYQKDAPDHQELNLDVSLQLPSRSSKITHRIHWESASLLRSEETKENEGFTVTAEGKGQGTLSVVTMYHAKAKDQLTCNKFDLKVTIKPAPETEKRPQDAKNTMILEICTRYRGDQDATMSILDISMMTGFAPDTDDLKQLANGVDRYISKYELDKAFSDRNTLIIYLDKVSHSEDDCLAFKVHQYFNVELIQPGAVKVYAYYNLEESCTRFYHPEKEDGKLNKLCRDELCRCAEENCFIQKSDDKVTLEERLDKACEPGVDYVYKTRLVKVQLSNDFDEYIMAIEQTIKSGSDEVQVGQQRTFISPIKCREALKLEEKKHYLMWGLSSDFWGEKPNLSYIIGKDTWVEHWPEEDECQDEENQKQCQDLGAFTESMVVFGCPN

As to “small cyclic hexapeptide (AcF-[OPdChaWR]), selective C5aR antagonist”, in test [1], the TF mRNA expression in PMNs (real time RT-PCR) after C5aR antagonism (fold decrease) is 2.14; the modified prothrombin time (mPT) of PMN supernatants; healthy serum preincubated with filter fibers, with C5aR antagonist came out at 29.1 s; the modified prothrombin time (mPT) of PMN supernatants; predialysis ESRD serum preincubated with filter fibers, with C5aR antagonist turned out to be 26.1 s; the modified prothrombin time (mPT) of supernatants of PMNs preincubated with C5aR antagonist (10 µM-30 min) is 31.6 s.

B1: Compstatin, a 13-residue cyclic peptide (Ac-I[CVWQDWGAHRTC]TNH2) (peptide)
peptide: Ac-ICVWQDWGAHRTCT-NH2
modifications: disulfide 2-13
SMILES: CC[C@H](C)[C@H](NC(C)=O)C(=O)N[C@H]1CSSC[C@@H](C(=O)N[C@H](C(N)=O)[C@@H](C)O)NC(=O)[C@H]([C@@H](C)O)NC(=O)[C@H](CCCNC(=N)N)NC(=O)[C@H](Cc2c[nH]cn2)NC(=O)[C@H](C)NC(=O)CNC(=O)[C@H](Cc2c[nH]c3ccccc23)NC(=O)[C@H](CC(=O)O)NC(=O)[C@H](CCC(N)=O)NC(=O)[C@H](Cc2c[nH]c3ccccc23)NC(=O)[C@H](C(C)C)NC1=O
Consider B1, for which, in test [2], the “TF mRNA expression in PMNs (real time RT-PCR) after Compstatin addition” value worked out at 2.79 fold decrease and the “intracellular TF protein in PMNs, MFI fold expression (flow cytometry); fiber-activated healthy serum blocked with Compstatin” value came out at 1.01 MFI fold expression.

The values are drawn from patent US20110269113A1 (University of Pennsylvania, published 2011).
